Laboratory results published in paper PMC9060507 (Proceedings of the National Academy of Sciences of the …, 2022).

Target: T1, Methylosinus trichosporium OB3b MbnBC enzyme complex (wild type) (Methylosinus trichosporium OB3b, UniProt A0A2D2D5M1;A0A2D2CY73)
T1 sequence 1: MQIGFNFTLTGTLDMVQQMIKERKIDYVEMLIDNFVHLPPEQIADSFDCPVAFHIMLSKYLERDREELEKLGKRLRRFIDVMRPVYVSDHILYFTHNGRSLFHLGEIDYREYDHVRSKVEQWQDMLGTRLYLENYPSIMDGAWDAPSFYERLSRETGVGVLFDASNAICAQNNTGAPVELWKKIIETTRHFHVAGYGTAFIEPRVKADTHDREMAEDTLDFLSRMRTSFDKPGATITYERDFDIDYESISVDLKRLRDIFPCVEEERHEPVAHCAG
T1 sequence 2: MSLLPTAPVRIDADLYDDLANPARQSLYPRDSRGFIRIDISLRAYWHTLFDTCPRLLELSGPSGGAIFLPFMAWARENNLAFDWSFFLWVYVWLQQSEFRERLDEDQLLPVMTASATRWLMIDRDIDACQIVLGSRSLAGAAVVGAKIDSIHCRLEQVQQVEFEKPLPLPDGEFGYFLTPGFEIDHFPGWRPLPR
Experiment: EPR spectroscopy

B1: MbnA precursor peptide from Ms. trichosporium OB3b (peptide)
peptide: MTVKIAQKKVLPVIGRAAALCGSCYPCSCM
binding result: binds
